Experimental data from US20110195494A1 (Boehringer Ingelheim, published 2011).
Values belong to the binder of their own block, whether it stands above or below them.

Experiments:
[1] = target: T1, full length human DLL4 on overexpressing CHO or HEK293 cells (human, UniProt Q9NR61 27-685); experiment: FMAT, hNotch1/Fc on CHO-hDLL4, periplasmic extract
T1 construct: also called CHO-hDLL4; HEK293-hDII4
From the text: (§1) All calculations are based on the FL1 total signal which comprises the average of the fluorescence per well times the number of counts per well.

[2] = target: T2, full length mouse DLL4 on overexpressing CHO or HEK293 cells (mouse, UniProt Q9JI71 27-686); experiment: FMAT, hNotch1/Fc on CHO-mDLL4, periplasmic extract
T2 construct: whole, on cells; also called CHO-mDLL4; mDLL4
From the text: as §1

[3] = target: T3, recombinant human DLL4, C-terminally His-tagged extracellular domain (R&D Systems) (human, UniProt Q9NR61 25-522, biotinylated where used in competition ELISA, AlphaScreen and on SA chips); experiment: competition ELISA, periplasmic extract
T3 construct: also called rhDLL4; hDLL4; not shown: C-terminal His tag

[4] = target: T3, recombinant human DLL4, C-terminally …; experiment: hDLL4/hNotch1-Fc AlphaScreen, periplasmic extract
Method: Periplasmic extracts are screened in a human DII4/human Notch1 AlphaScreen assay to assess the blocking capacity of the expressed VHHs. Human DII4 is biotinylated using biotin (Sigma, St Louis, Mo., USA) and biotinamidohexanoic acid 3-sulfo-N-hydroxysuccinimide ester sodium salt (Sigma, St Louis, Mo., USA). […] To evaluate the neutralizing capacity of the VHHs, dilution series of the periplasmic extracts are pre-incubated with biotinylated human DII4. To this mixture, the acceptor beads and the streptavidin donor beads are added and further incubated for 1 hour at room temperature. Fluorescence is measured by reading plates on the Envision Multilabel Plate reader (Perkin Elmer, Waltham, Mass., USA) using an excitation wavelength of 680 nm and an emission wavelength of 520 nm.

T2 sequence (Q9JI71 27-686): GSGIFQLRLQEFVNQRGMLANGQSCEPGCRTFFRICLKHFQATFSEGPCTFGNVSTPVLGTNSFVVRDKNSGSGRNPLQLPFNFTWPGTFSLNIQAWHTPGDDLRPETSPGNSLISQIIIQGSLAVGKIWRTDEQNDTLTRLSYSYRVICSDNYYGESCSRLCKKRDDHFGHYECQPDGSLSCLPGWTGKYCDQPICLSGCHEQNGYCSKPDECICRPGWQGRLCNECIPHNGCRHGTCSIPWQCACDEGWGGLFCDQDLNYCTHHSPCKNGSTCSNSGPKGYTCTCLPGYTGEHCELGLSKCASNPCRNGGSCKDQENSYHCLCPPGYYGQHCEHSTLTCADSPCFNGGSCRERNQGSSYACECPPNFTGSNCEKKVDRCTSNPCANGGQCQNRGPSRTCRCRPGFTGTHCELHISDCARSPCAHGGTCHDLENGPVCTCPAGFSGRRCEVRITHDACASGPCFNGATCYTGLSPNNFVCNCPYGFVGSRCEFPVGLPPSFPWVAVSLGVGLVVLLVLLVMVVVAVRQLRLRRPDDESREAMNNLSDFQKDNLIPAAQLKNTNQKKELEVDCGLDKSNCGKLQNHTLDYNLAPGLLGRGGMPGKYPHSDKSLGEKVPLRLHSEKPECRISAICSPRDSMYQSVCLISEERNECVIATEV
T1 sequence (Q9NR61 27-685 limits assumed): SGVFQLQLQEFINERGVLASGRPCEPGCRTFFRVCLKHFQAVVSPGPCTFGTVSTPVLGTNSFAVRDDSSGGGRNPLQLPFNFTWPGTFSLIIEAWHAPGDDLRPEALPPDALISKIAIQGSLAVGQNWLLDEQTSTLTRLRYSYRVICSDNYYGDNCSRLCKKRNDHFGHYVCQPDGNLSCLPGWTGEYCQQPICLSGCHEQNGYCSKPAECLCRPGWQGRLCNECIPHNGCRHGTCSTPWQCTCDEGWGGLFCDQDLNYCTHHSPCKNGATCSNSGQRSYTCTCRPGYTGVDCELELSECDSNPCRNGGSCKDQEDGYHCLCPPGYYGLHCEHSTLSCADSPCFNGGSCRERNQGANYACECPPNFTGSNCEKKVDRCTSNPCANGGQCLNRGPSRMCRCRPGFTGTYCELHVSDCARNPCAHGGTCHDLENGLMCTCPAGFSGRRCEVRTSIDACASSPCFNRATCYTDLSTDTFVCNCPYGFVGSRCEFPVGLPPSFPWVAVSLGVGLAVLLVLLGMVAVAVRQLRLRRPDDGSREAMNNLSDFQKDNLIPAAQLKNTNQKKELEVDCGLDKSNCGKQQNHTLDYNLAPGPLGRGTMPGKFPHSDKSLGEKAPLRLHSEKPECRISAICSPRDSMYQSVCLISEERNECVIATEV
T3 sequence (Q9NR61 25-522): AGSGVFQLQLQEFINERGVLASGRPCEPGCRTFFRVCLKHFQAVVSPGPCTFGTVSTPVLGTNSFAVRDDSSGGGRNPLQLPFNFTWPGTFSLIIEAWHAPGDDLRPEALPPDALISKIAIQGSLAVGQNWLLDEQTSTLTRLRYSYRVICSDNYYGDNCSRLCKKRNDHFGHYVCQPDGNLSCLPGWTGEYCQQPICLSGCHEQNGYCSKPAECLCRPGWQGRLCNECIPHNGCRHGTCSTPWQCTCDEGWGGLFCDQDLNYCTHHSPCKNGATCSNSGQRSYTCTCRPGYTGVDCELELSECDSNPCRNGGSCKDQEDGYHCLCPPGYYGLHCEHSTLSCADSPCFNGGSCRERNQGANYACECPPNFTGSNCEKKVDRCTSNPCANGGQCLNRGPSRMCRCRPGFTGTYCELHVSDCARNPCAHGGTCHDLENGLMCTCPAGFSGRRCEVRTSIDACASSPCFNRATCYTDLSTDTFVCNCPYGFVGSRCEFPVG

B4: DLLBII8C11 (VHH)
VHH: EVQLVESGGGLVQAGGSLRLSCAASGFTFDDYAIGWFRQAPGKEREGVSCISSHDRTTYYADSVKGRFTISSDNAKNTVYLQMNSLKPEDTAVYYCAADPLVCGYNDPRLADYWGQGTQVTVSS
notes: also called DLLBII08C11; not shown: C-terminal c-myc tag and His6 tag
ELISA hDLL4 % inhibition [3]: 57%

B5: DLLBII8A09 (VHH)
VHH: EVQLVESGGGLVQPGGSLRLSCAASGFTLDYYNIGWFRQAPGKEREWVSCINSSDGSTYYADSVKGRFTISRDNAKNTVYLQMNSLKPEDTAVYYCAAPFAYYSNLCGVNGYDYWGQGTQVTVSS
notes: also called DLLBII08A09; not shown: C-terminal c-myc tag and His6 tag
ELISA hDLL4 % inhibition [3]: 96%

B6: DLLBII61F05 (VHH)
VHH: EVQLVESGGGLVQPGGSLRLSCTASGFTFSSYAMSWVRQAPGKGLEWVSFINKDGSDTGYADSVKGRFTISRDNAKNTMYLQMNSLKPEDTAVYFCETRTSRSPRPRGQGTQVTVSS
notes: tested as periplasmic extract; also called DLLBII61F5; not shown: C-terminal c-myc tag and His6 tag
FMAT hDLL4 % inhibition [1]: 74% | FMAT mDLL4 % inhibition [2]: 76%

B11: DLLBII33C05 (VHH)
VHH: EVQLVESGGGLVQAGGSLRLSCAASGFTLDNYVIGWFRQAPGKEREEVSCISSSGGSTDYLDSVKGRFTISRDNAKNTVYLQMNSLKPEDTAVYYCAADSLPCYYDKMVYDYWGQGTQVTVSS
notes: tested as periplasmic extract; also called DLLBII33C5; not shown: C-terminal c-myc tag and His6 tag
ELISA hDLL4 % inhibition [3]: 86% | Alpha Screen hDLL4 % inhibition [4]: 75%

B12: DLLBII61F07 (VHH)
VHH: EVQLVESGGGLVQAGGSLRLSCAASGRTFSRYAMGWFRQAPGKEREFVAAINWSGGSTYYADSVKGRFTISRDNAKNTVYLQMNSLKPEDTAVYDCAASNYYSVYDDRPVMDYWGQGTQVTVSS
notes: tested as periplasmic extract; also called DLLBII61F7; not shown: C-terminal c-myc tag and His6 tag
FMAT hDLL4 % inhibition [1]: 79% | FMAT mDLL4 % inhibition [2]: 77%

B18: DLLBII47D01 (VHH)
VHH: EVQLVESGGGLVQPGGSLRLSCAASGFTFDDYAIGWFRQAPGKEREGVSCISSSGSTYYADSVKGRFTISRDNAKNTVYLQMNSLKPEDTAVYYCAIAGASSWCFPPGYWGQGTQVTVSS
notes: tested as periplasmic extract; also called DLLBII47D1; not shown: C-terminal c-myc tag and His6 tag
FMAT hDLL4 % inhibition [1]: 87%

B19: DLLBII7B05 (VHH)
VHH: EVQLVESGGGLVQAGGSLRLSCAASGFALDYYAVGWFRQAPGKEREGVSCISSRGGSTFYADSVKGRFTTSRNNAKNTVYLQMNSLKPEDTAVYYCAAHPLQNCCGGSAYASPEAVYEYWGQGTQVTVSS
notes: also called DLLBII07B05; DLLBII7B5; not shown: C-terminal c-myc tag and His6 tag
ELISA hDLL4 % inhibition [3]: 84%

B20: DLLBII19D10 (VHH)
VHH: EVQLVESGGGLVQAGDSLRLSCAASGRTVGSYDMSWVRQGPGKEREWVSSINSGVGKTYYADSVKGRFTIFRDNAKNMVYLQMNNLKPEDTAVYYCATEMDGSRYVEGQGTQVTVSS
notes: tested as periplasmic extract; not shown: C-terminal c-myc tag and His6 tag
ELISA hDLL4 % inhibition [3]: 98% | Alpha Screen hDLL4 % inhibition [4]: 85%

B21: DLLBII5B11 (VHH)
VHH: EVQLVESGGGLVQPGGSLRLSCAISGFTLDLHVIGWLRQAPGKEREWVSCISSSDGSTYYADSVKGRFTISRDNAKNTVYLQMNSLKPEDTAVYYCAAPWDSWYCGIGNDYDYWGQGTQVTVSS
notes: also called DLLBII05B11; not shown: C-terminal c-myc tag and His6 tag
ELISA hDLL4 % inhibition [3]: 98%

B23: DLLBII6B11 (VHH)
VHH: EVQLVESEGGLVQAGGSLRLSCAASGSTFSSYAMGWYRQAPGKQRELVAVISNGGITNYPNSVKGRFTISRDNAKNTVYLQMNSLKPEDTAVYYCFYSGSYYYPTDVHEYDYWGQGTQVTVSS
notes: also called DLLBII06B11; not shown: C-terminal c-myc tag and His6 tag
ELISA hDLL4 % inhibition [3]: 98%

B26: DLLBII58A11 (VHH)
VHH: EVQLVESGGGLVQAGGSLRLSCTTSERTVSRYSMGWFRQAPGKEREAVATISWSGDSTYYADSVKGRFTISRDNTKNTLYLQIDSLKPEDTAVYYCVAKPNLKYGSYWPPRGYDYWGQGTQVTVSS
notes: as for B20
FMAT hDLL4 % inhibition [1]: 95% | FMAT mDLL4 % inhibition [2]: 73%

Other lines, results leading:

FMAT hDLL4 % inhibition [1]: 86% | FMAT mDLL4 % inhibition [2]: 83%
B1: DLLBII104A03 (VHH)
VHH: EVQLVESGGGLVQAGGSLRLSCAASGDIPRIAAMGWYRQAPGKQRELVATVSNAATTRYADSAKGRFTISRDNAKTVSLQMDNLKPEDTGVYYCYSLATTVTPSWVNYWGQGTQVTVSS
notes: tested as periplasmic extract; also called DLLBII104A3; not shown: C-terminal c-myc tag and His6 tag

FMAT hDLL4 % inhibition [1]: 85% | FMAT mDLL4 % inhibition [2]: 75%
B2: DLLBII102F08 (VHH)
VHH: EVQLVESGGGLVQTGDSLRLSCAASGSTFSNYRMGWFRQGPGKEREFVAAIGRNGQNTYYTDSVKGRFTVTRDNAKNMVYLQMNSLKPEDSAVYTCAASLRGWDTTRIDYEYWGQGTQVTVSS
notes: tested as periplasmic extract; also called DLLBII102F8; not shown: C-terminal c-myc tag and His6 tag

FMAT hDLL4 % inhibition [1]: 75% | FMAT mDLL4 % inhibition [2]: 90%
B3: DLLBII112A04 (VHH)
VHH: EVQLVESGGGLVQAGGSLRLSCAAFGRTPYGMGWFRQAPGKEREFVAAITSDGSTNYADSVKGRFTISRDNAKNAVSLQMNSLKPEDTAVYYCTAPYYSDFEGTTTEYDYWGQGTQVTVSS
notes: tested as periplasmic extract; also called DLLBII112A4; not shown: C-terminal c-myc tag and His6 tag

FMAT hDLL4 % inhibition [1]: 87% | FMAT mDLL4 % inhibition [2]: 83%
B7: DLLBII104C04 (VHH)
VHH: EVQLVESGGGLVQAGGSLRLSCAAAGSTFSSYVMGWYRQAPGKQRELVAHISTRGITYYADSVKGRFTISRDNAKNTMYLQMNSLKPEDTAVYYCNTRRNFLSNYWGQGTQVTVSS
notes: tested as periplasmic extract; also called DLLBII104C4; not shown: C-terminal c-myc tag and His6 tag

FMAT hDLL4 % inhibition [1]: 71% | FMAT mDLL4 % inhibition [2]: 82%
B8: DLLBII80E08 (VHH)
VHH: EVQLVESGGGLVQAGGSLTLSCAASGGTFTTYAMGWFRQAPGKEREFVAAVSRFGVSWDYADSVKGRFTISRDNTANTLKLRMNSLKADDTAVYYCAAGGRSFLPFVPAYWGQGTQVTVSS
notes: tested as periplasmic extract; also called DLLBII80E8; not shown: C-terminal c-myc tag and His6 tag

FMAT hDLL4 % inhibition [1]: 86% | FMAT mDLL4 % inhibition [2]: 82%
B9: DLLBII102G04 (VHH)
VHH: EVQLMESGGGLVQPGGSLRLSCAASGFTFSSYAMSWVRQAPGKGLEWVSRITSGGRTTYRDSVKGRFTISRDNSKNTLYLQMNSLKPEDTALYYCAKARGDIDVYTLSDSRGQGTQVTVSS
notes: tested as periplasmic extract; also called DLLBII102G4; not shown: C-terminal c-myc tag and His6 tag

FMAT hDLL4 % inhibition [1]: 74% | FMAT mDLL4 % inhibition [2]: 71%
B10: DLLBII62C11 (VHH)
VHH: EVQLMESGGGLVQPGGSLRLSCVAAGFTFSNYYMSWVRQAPGKGLEWVSVISPDGSNTYYADTVKGRFTISRGNAKNTLFLQMTGLKSEDAAVYYCARGSGSWGVHGQGTQVTVSS
notes: not shown: C-terminal c-myc tag and His6 tag

FMAT hDLL4 % inhibition [1]: 75% | FMAT mDLL4 % inhibition [2]: 83%
B13: DLLBII96C03 (VHH)
VHH: EVQLVESGGGLVQPGGSLRLSCAASGFTFGNYDMSWVRQAPGKGPEWVSAINSGGGDTYYADSVKGRFTISRDNAKNTLYLQMNSLKPEDTAVYYCATPRGWGPTGPHEYGYWGQGTQVTVSS
notes: also called DLLBII96C3; DLLBII96CO3; not shown: C-terminal c-myc tag and His6 tag

FMAT hDLL4 % inhibition [1]: 75% | FMAT mDLL4 % inhibition [2]: 80%
B14: DLLBII107C03 (VHH)
VHH: EVQLVESGGGLVQPGGSLRLSCEVSGSIGSVSDMRWYRQAPGLQYELVARITSGSITDYSDSVKGRFTISRDNAKNTVYLQMNSLKPEDTAVYYCNADVQHSAWLKPLTYWGQGTQVTVSS
notes: tested as periplasmic extract; also called DLLBII107C3; not shown: C-terminal c-myc tag and His6 tag

FMAT hDLL4 % inhibition [1]: 86% | FMAT mDLL4 % inhibition [2]: 78%
B15: DLLBII104B05 (VHH)
VHH: EVQLVESGGGSVQAGGSLRLSCAASGSISRIDVMAWYRQAPGKERELVASISSGGSTNYADSVKGRFTISREYFKNMMYLQMNSLKFEDTAVYYCNADSRRGGVGNFFRSWGQGTQVTVSS
notes: tested as periplasmic extract; also called DLLBII104B5; not shown: C-terminal c-myc tag and His6 tag

FMAT hDLL4 % inhibition [1]: 85% | FMAT mDLL4 % inhibition [2]: 78%
B16: DLLBII101F01 (VHH)
VHH: EVQLVESGGGLVQAGGSLRLSCAASGRTFSNYAMGWFRQAPGKEREFVAAISWSGGDTYYADSVKGRFTISRDNAKNTVCLQMNSLKPEDTAVYYCAASFQSGAAPGANFYDYWGQGTQVTVSS
notes: tested as periplasmic extract; also called DLLBII101F1; not shown: C-terminal c-myc tag and His6 tag

FMAT hDLL4 % inhibition [1]: 80% | FMAT mDLL4 % inhibition [2]: 85%
B17: DLLBII112E07 (VHH)
VHH: EVQLVESGGGLVQAGGSLRLSCAASGRTVRSYATGWFRQAPGKEREFVAALRWSIGSIASVYYDDSVKGRFTISGDNAENTVYLQMNALKPEDTAIYYCASTTRGRYSALSASAYDYWGQGTQVTVSS
notes: tested as periplasmic extract; also called DLLBII112E7; not shown: C-terminal c-myc tag and His6 tag

FMAT hDLL4 % inhibition [1]: 74% | FMAT mDLL4 % inhibition [2]: 84%
B22: DLLBII115A05 (VHH)
VHH: EVQLVESGGGLVQPGGSLRLSCAASGFTFGSYDMSWVRRSPGKGPEWVSSINSGGGSTYYADFVKGRFTISRDNAKNTLYLQMNSLKPEDTAVYYCAADRYIRARQGDYWGAYEYDYWGQGTQVTVSS
notes: also called DLLBII115A5; 115A5; not shown: C-terminal c-myc tag and His6 tag

FMAT hDLL4 % inhibition [1]: 72% | FMAT mDLL4 % inhibition [2]: 97%
B24: DLLBII112A03 (VHH)
VHH: EVQLVESGGGLVQPGGSLRLSCAASGIRFSINGMGWYRQAPGKQREAVATITRGGIRDYTDSVKGRFTISRDIARNTVYLQMNNLKPEDSAVYYCNIDIYWGRGTQVTVSS
notes: tested as periplasmic extract; also called DLLBII112A3; not shown: C-terminal c-myc tag and His6 tag

FMAT hDLL4 % inhibition [1]: 87% | FMAT mDLL4 % inhibition [2]: 75%
B25: DLLBII101H09 (VHH)
VHH: EVQLVESGGGLVQPGGSLRLSCAASGFTLGYYTIVWFRQAPGKERKGVSCISSRDGSRYYADSVKGRFTISRDNAKNTVYLRMNSLKPEDTAVYYCAAGPDCSSYDYWGQGTQVTVSS
notes: tested as periplasmic extract; also called DLLBII101H9; not shown: C-terminal c-myc tag and His6 tag

FMAT hDLL4 % inhibition [1]: 81% | FMAT mDLL4 % inhibition [2]: 71%
B27: DLLBII95F02 (VHH)
VHH: EVQLVESGGGSVQAGGSLRLSCAASGRTFSSYAMGWFRQAPGKEREFVAAINWSGGYTYYADSVRGRFTISRDNAKNTVYLQMNSLKPEDTAVYYCAAPAPGSSGYEYDYWGQGTQVTVSS
notes: tested as periplasmic extract; also called DLLBII95F2; not shown: C-terminal c-myc tag and His6 tag
